# Data reported in patent US20210206877A1 (Genentech, published 2021).
# Tests used:
# Experiment in all cases: cell-based or functional assay
# [1] = molecular target: BACE1 endogenous to primary cortical neurons from E16.5 CD1 mice (mouse, UniProt P56818 46-501)
# [2] = molecular target: murine BACE1 ECD
# [3] = molecular target: human BACE1 ECD (human, UniProt P56817)
# [4] = molecular target: BACE1 ECD (as used in the enzyme activity assay) (UniProt P56817 22-457, limits assumed)
# For % inhibition, FRET short substrate assay (negative = activation) in this document: test concentration or dose not given here.
# Chain of human BACE1 ECD (P56817 22-457): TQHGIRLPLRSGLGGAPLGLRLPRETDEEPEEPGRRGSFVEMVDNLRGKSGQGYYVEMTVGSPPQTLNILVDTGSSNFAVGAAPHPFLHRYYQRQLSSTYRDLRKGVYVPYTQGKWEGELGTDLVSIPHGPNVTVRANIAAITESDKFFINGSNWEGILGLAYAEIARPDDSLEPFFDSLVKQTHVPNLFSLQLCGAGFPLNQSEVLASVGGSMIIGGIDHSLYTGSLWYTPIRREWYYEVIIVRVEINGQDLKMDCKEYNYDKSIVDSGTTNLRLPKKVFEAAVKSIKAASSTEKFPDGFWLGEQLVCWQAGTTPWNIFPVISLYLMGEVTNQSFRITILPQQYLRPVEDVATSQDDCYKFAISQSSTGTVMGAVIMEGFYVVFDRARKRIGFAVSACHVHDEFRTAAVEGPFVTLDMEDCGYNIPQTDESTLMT
# Chain of BACE1 ECD (as used in the enzyme activity assay) (P56817 22-457 limits assumed): as the sequence (P56817 22-457) above
# Chain of murine BACE1 ECD (single chain, as listed by the source limits assumed): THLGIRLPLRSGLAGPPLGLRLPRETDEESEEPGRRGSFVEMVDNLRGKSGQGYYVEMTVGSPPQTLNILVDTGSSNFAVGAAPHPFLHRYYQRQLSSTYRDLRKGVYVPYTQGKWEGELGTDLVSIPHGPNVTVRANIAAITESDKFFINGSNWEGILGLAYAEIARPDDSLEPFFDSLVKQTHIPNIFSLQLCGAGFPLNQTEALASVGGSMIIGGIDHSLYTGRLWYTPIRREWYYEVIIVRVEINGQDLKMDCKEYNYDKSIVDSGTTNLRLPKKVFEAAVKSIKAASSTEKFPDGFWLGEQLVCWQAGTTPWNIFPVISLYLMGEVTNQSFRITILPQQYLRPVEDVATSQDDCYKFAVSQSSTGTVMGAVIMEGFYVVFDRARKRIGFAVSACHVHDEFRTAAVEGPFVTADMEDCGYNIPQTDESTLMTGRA
# Chain of BACE1 endogenous to primary cortical neurons from E16.5 CD1 mice (P56818 46-501): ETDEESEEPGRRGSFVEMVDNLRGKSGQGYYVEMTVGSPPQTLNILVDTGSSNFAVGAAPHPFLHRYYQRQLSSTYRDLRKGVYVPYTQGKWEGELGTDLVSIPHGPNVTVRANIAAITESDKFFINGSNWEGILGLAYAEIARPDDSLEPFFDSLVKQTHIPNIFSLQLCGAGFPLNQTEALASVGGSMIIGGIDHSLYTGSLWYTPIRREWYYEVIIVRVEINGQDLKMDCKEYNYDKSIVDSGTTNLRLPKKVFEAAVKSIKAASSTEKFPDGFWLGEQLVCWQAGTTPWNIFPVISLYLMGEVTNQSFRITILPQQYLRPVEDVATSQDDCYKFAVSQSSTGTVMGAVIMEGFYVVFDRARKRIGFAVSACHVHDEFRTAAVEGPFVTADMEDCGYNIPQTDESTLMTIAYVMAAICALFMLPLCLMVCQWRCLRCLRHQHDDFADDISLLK
"max % inhibition, Abeta x-40 in mouse cortical neurons [1]","% inhibition, FRET short substrate assay (negative = activation) [2]","% inhibition, FRET short substrate assay (negative = activation) [3]","EC50, FRET short substrate assay [4]","EC50, HTRF long substrate assay [4]",Binder
67%,–,–,–,–,"6298 (antibody, V domains shown) VH: QLQLQESGPGLVKPSETLSLTCTVSGGSISWSSYYWSWIRQPPGKGLEWIGNIYYSGSTYYNPSLKSRVTISVDTSKNQFSLKLSSVTAADTAVYYCARLGHGYNYFDLWGRGTLVTVSS VL: EIVLTQSPATLSLSPGERATLSCRASQSVSSYLAWFQQKPGQAPRLLIYDASNRATGIPARFSGSGSGTDFTLTISSLEPEDFAVYYCQQVYVWPPRTFGGGTKVEIK"
–,97%,99%,7.88 nM,171 nM,"5880 (antibody, V domains shown) VH: EVQLLESGGGLVQPGGSLRLSCAASGFTFGSYAMTWVRQAPGKGLEWVSAISGSGISTPYADSVKGRFTISRDNSKNTLYLQMNSLRAEDTAVYYCAKGAGHGSYVKGWFDPWGQGTLVTVSS VL: EIVLTQSPATLSLSPGERATLSCRASQSVSSYLAWYQQKPGQAPRLLIYDASNRATGIPARFSGSGSGTDFTLTISSLEPEDFAVYYCQQSVNFPFTFGGGTKVEIK"
–,98%,97%,5.93 nM,33.7 nM,"5881 (antibody, V domains shown) VH: EVQLLESGGGLVQPGGSLRLSCAASGFTFSKYAMSWVRQAPGKGLEWVSAISGSGISTPYADSVKGRFTISRDNSKNTLYLQMNSLRAEDTAVYYCAKGAGHGSYVKGWFDPWGQGTLVTVSS VL: EIVLTQSPATLSLSPGERATLSCRASQSVSSYLAWYQQKPGQAPRLLIYDASNRATGIPARFSGSGSGTDFTLTISSLEPEDFAVYYCQQSVNFPFTFGGGTKVEIK"
–,60%,63%,95.9 nM,189 nM,"5592 (antibody, V domains shown) VH: not shown VL: EIVLTQSPATLSLSPGERATLSCRASQSVSSYLAWYQQKPGQAPRLLIYDASNRATGIPARFSGSGSGTDFTLTISSLEPEDFAVYYCQQSVNFPFTFGGGTKVEIK"

# Second part, the binder before the results:
Binder,"max % inhibition, Abeta x-40 in mouse cortical neurons [1]","% inhibition, FRET short substrate assay (negative = activation) [2]","% inhibition, FRET short substrate assay (negative = activation) [3]","EC50, FRET short substrate assay [4]","EC50, HTRF long substrate assay [4]"
"5878 (antibody, V domains shown) VH: EVQLLESGGGLVQPGGSLRLSCAASGFTFSSYAMSWVRQAPGKGLEWVSAISGSGISTPYADSVKGRFTISRDNSKNTLYLQMNSLRAEDTAVYYCAKGAGHGSYVKGWFDPWGQGTLVTVSS VL: EIVLTQSPATLSLSPGERATLSCRASQSVSSYLAWYQQKPGQAPRLLIYDASNRATGIPARFSGSGSGTDFTLTISSLEPEDFAVYYCQQSVNFPFTFGGGTKVEIK",–,98%,99%,24.3 nM,164 nM
"5583 (antibody, V domains shown) VH: not shown VL: EIVLTQSPATLSLSPGERATLSCRASQSVSSYLAWYQQKPGQAPRLLIYDASNRATGIPARFSGSGSGTDFTLTISSLEPEDFAVYYCVQRSNFPWTFGGGTKVEIK",–,34%,44%,9.72 nM,172 nM
"5532 (antibody, V domains shown) VH: not shown VL: EIVLTQSPATLSLSPGERATLSCRASQSVSSYLAWYQQKPGQAPRLLIYDASNRATGIPARFSGSGSGTDFTLTISSLEPEDFAVYYCQQSSNFPFTFGGGTKVEIK",–,50%,56%,52.3 nM,104 nM
